Test system: GST-Co-NF-kB RHD-only (Capsaspora owczarzaki)
Test: PBM
Conditions: ~300 nM protein; EMSA: 10 mM HEPES pH 7.8, 50 mM KCl, 1 mM DTT, 1 mM EDTA, 4% glycerol, 40 ug/ml poly-dI-dC, 2X BSA, 50 ug 293T extract, 30 C 30 min; PBM: 6 mM HEPES pH 7.8 …

Sequence | binding signal
CCGATTAACATCAAGGAATTCCCTGATGTTAATCGG (double strand) [PBM probe AGGAATTCCC] | 4.22 PBM z-score
CCGATTAACATCACGGAATTCCCTGATGTTAATCGG (double strand) [PBM probe CGGAATTCCC] | 3.4 PBM z-score
CCGATTAACATCAGGAATTCCCATGATGTTAATCGG (double strand) [PBM probe GGAATTCCCA] | 4.61 PBM z-score
CCGATTAACATCAGGAATTCCCCTGATGTTAATCGG (double strand) [PBM probe GGAATTCCCC] | 7.64 PBM z-score
CCGATTAACATCAGGGAATTCCCTGATGTTAATCGG (double strand) [PBM probe GGGAATTCCC] | 7.25 PBM z-score

Reference: PMC8677719
